Consider three molecules from patent CN111234026A (BEIJING CHEST HOSPITAL CAPITAL MEDICAL UNIV; BEIJING …, dated 2020).

What all share (assay): indirect ELISA, recombinant protein coated on the plate
One assay has as its target T1, 结核分枝杆菌特异性重组蛋白38KD (Mycobacterium tuberculosis, UniProt P9WGU1 24-374).
T1 sequence (looked up): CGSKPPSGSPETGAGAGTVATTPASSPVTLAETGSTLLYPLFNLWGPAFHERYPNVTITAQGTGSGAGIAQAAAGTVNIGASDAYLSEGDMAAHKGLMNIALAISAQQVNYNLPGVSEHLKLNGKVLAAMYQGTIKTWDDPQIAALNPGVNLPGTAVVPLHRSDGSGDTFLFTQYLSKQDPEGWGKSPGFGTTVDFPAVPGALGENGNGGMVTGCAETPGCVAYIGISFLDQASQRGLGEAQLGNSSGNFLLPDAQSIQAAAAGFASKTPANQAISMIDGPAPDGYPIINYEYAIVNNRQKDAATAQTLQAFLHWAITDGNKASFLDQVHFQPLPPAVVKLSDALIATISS

For the next assay, the target named is T2, 结核分枝杆菌特异性重组蛋白MPT32 (Mycobacterium tuberculosis, UniProt P9WIR7 40-325).
T2 sequence (looked up): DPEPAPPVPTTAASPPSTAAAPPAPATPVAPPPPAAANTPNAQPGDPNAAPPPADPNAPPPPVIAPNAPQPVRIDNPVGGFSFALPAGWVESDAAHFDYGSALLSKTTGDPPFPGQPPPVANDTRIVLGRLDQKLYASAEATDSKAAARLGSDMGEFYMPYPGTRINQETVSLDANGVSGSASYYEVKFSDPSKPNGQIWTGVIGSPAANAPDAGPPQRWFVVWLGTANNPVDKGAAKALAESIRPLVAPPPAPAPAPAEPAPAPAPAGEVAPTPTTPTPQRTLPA

In a further assay the target is T3, 结核分枝杆菌特异性重组蛋白MPT64 (Mycobacterium tuberculosis, UniProt P9WIN9 24-228).
T3 sequence (looked up): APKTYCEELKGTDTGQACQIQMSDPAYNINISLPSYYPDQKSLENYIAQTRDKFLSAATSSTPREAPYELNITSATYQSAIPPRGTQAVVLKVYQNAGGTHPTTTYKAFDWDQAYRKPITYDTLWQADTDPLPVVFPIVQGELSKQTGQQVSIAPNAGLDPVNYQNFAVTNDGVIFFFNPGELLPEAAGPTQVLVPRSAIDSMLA

A further assay has as its target 结核分枝杆菌特异性重组蛋白Mtb81 (Mycobacterium tuberculosis, UniProt P9WK17 1-741).
The target of a further assay is T4, 结核分枝杆菌特异性重组蛋白CFP10 (Mycobacterium tuberculosis, UniProt P9WNK5 1-100).
T4 sequence (looked up): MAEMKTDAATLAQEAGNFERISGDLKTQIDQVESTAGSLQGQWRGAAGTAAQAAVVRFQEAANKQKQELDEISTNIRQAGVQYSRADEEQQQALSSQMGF

The next assay deals with T5, 结核分枝杆菌特异性重组蛋白EspC (Mycobacterium tuberculosis, UniProt P9WJD7 1-103).
T5 sequence (looked up): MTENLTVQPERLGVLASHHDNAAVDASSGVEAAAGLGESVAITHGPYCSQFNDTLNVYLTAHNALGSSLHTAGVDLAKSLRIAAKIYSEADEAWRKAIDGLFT

结核分枝杆菌特异性重组蛋白Mtb81, sequence (P9WK17 whole entry): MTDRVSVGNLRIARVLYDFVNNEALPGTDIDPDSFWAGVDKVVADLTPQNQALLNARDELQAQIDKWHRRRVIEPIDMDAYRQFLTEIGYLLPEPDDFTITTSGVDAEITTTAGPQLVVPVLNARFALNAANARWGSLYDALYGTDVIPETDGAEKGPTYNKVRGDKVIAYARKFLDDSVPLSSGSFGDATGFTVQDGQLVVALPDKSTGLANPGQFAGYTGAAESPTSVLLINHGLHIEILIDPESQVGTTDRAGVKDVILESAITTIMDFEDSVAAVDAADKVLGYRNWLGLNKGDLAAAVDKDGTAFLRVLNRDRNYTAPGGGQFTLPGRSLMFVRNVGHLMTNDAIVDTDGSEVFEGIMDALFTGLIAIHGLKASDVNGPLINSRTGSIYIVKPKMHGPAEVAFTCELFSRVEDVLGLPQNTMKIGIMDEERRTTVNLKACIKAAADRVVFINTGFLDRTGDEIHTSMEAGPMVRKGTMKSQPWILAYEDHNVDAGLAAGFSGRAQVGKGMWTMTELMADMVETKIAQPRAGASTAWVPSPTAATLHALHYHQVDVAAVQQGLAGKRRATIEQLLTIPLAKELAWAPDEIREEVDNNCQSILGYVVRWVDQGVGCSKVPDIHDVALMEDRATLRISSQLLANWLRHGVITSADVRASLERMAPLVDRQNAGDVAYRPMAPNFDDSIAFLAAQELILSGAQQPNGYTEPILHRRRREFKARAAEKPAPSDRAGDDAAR

B1: BJRbL76 (antibody, V domains shown)
VH: QSVEESGGRLVTPGTPLTLTCTVSGFSLSTYAITWVRQAPGKGLEWIGYIWGGGNTDYASWAKGRFTISKTSTTVDLKITSPTIEDTATYFCGRNDLGYGSDIWGPGTLVTVSS
VL: DVVMTQTPSSKSVPVGDTVTINCQASQSVWGNKWLSWYQQKPGQPPKLLIYQASKLASGVPSRFSGSGSGTQFTLTISDVVCDDAATYYCGGHGTGNNDNPLGGGTMVEIKG
notes: also called 兔抗LAM单克隆抗体BJRbL76; LAM抗体
Regarding B1, the binding result in the assay with 结核分枝杆菌特异性重组蛋白38KD, with 结核分枝杆菌特异性重组蛋白MPT32, in the assay with 结核分枝杆菌特异性重组蛋白MPT64, with 结核分枝杆菌特异性重组蛋白Mtb81, with 结核分枝杆菌特异性重组蛋白CFP10 and with 结核分枝杆菌特异性重组蛋白EspC was “no binding (tested: protein coated at 5μg/ml)” each time.

B2: BJRbL20 (antibody, V domains shown)
VH: QSVEESGGRLVTPGGSLTLTCTVSGIDLSSYDMGWVRQAPGKGLEWIGNIWSNGFTDYASWVNGRFTISKSSSTKMDLKMTSLTTEDTATYFCARGSSGYVGDIWGPGTLVTVSS
VL: DPVLTQTASSVSAAVGGTVTINCQASQSVYGNNELSWFQQKPGQPPKLLIYYASTLASGVPSRFKGSGSGTQFTLTISDLECDDAAIYYCQGGYLGNRAFGGGTEVVVKG
notes: also called 兔抗LAM单克隆抗体BJRbL20; LAM抗体
On to B2, for which the binding result with 结核分枝杆菌特异性重组蛋白38KD, with 结核分枝杆菌特异性重组蛋白MPT32, in the assay with 结核分枝杆菌特异性重组蛋白MPT64, with 结核分枝杆菌特异性重组蛋白Mtb81, with 结核分枝杆菌特异性重组蛋白CFP10 and with 结核分枝杆菌特异性重组蛋白EspC was “no binding (tested: protein coated at 5μg/ml)” throughout.

B3: BJRbL52 (antibody, V domains shown)
VH: QSVEESGGRLVTPGTSLTLTCTVSGFSLSSYDMGWVRQAPGKGLEWIGNIWSNGFTDYASWVNGRFTISKSSSTKMDLKMTSLTTEDTATYFCARGSSGYVGDIWGPGTLVTVSS
VL: DPVLTQTASSVSAAVGGTVTINCQASQSVYGNNELSWYQQKSGQPPKLLIYKASTLASGVPSRFKASGSGTQFTLTISDLECDDAAIYYCQGGYWGNRAFGGGTEVVVKG
notes: also called 兔抗LAM单克隆抗体BJRbL52; LAM抗体
As for B3, the binding result with 结核分枝杆菌特异性重组蛋白38KD, in the assay with 结核分枝杆菌特异性重组蛋白MPT32, with 结核分枝杆菌特异性重组蛋白MPT64, with 结核分枝杆菌特异性重组蛋白Mtb81, in the assay with 结核分枝杆菌特异性重组蛋白CFP10 and with 结核分枝杆菌特异性重组蛋白EspC was “no binding (tested: protein coated at 5μg/ml)” each time.
